Target: the molecule itself
Test: SEC

B1: DGCR8 NC1 (amino acid residues 276-751 of human DGCR8), Fe(III) heme-bound dimer (domain or fragment, UniProt Q8WYQ5 276-751, looked up)
chain: DGETSVQPMMTKIKTVLKSRGRPPTEPLPDGWIMTFHNSGVPVYLHRESRVVTWSRPYFLGTGSIRKHDPPLSSIPCLHYKKMKDNEEREQSSDLTPSGDVSPVKPLSRSAELEFPLDEPDSMGADPGPPDEKDPLGAEAAPGALGQVKAKVEVCKDESVDLEEFRSYLEKRFDFEQVTVKKFRTWAERRQFNREMKRKQAESERPILPANQKLITLSVQDAPTKKEFVINPNGKSEVCILHEYMQRVLKVRPVYNFFECENPSEPFGASVTIDGVTYGSGTASSKKLAKNKAARATLEILIPDFVKQTSEEKPKDSEELEYFNHISIEDSRVYELTSKAGLLSPYQILHECLKRNHGMGDTSIKFEVVPGKNQKSEYVMACGKHTVRGWCKNKRVGKQLASQKILQLLHPHVKNWGSLLRMYGRESSKMVKQETSDKSVIELQQYAKKNKPNLHILSKLQEEMKRLAEEREETRK
**Q.** Does B1 bind?
**A.** binds

From article PMC4788497 (Methods in molecular biology (Clifton, N.J.), 2014)
